Six molecules from US20080227711A1 (LABORATOIRES SERONO, published 2008) can be followed below.

T1: CXCL8/IL-8 (UniProt P10145 28-99, limits assumed)
T1 sequence (looked up): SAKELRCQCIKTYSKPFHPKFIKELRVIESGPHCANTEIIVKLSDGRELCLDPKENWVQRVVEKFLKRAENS

T2: CXCL1/Gro-alpha (UniProt P09341 35-107)
T2 sequence: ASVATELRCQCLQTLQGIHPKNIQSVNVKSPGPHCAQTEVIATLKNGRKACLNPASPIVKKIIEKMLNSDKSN

T3: murine CXCL1/KC (murine, UniProt P12850 25-96)
T3 sequence: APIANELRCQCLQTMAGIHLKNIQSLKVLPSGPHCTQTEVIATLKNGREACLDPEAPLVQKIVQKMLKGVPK

T4: murine CXCL2/MIP-2 (murine, UniProt P10889 28-100)
T4 sequence: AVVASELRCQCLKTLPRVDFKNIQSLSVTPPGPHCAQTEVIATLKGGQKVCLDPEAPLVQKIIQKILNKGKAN

T5: CX3CL1/Fractalkine (UniProt P78423 25-100)
T5 sequence: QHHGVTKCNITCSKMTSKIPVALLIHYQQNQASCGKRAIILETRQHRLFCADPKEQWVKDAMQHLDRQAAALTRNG

T6: CXCL10/IP-10 (UniProt P02778 22-98)
T6 construct: also called 125I-CXCL10/IP-10
T6 sequence: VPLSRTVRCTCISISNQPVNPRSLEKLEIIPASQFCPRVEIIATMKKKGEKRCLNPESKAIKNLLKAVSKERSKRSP

T7: CTACK/CCL27 (UniProt Q9Y4X3 25-112)
T7 construct: also called 125I-CCL27/CTACK
T7 sequence: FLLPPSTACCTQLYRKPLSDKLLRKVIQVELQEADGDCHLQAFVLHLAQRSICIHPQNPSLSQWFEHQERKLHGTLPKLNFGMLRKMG

T8: IL-1α (UniProt P01583 113-271)
T8 construct: also called 125I-IL-1
T8 sequence: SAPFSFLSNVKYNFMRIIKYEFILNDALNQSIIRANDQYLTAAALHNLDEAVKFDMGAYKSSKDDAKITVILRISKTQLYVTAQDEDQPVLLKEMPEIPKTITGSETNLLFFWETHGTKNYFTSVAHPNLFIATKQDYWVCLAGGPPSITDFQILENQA

B1: TARC/CCL17 (ligand)
chain: ARGTNVGRECCLEYFKGAIPLRKLKTWYQTSEDCSRDAIVFVTVQGRAICSDPNNKRVKNAVKYLQSLERS
notes: also called 125I-CCL17/TARC
B2: CCL3/MIP-1-alpha (ligand)
chain: SLAADTPTACCFSYTSRQIPQNFIADYFETSSQCSKPGVIFLTKRSRQVCADPSEEWVQKYVSDLELSA
notes: also called MIP-1α
B3: CCL4/MIP-1-beta (ligand)
chain: APMGSDPPTACCFSYTARKLPRNFVVDYYETSSLCSQPAVVFQTKRSKQVCADPSESWVQEYVYDLELN
notes: also called MIP-1β
B4: CCL18/PARC (ligand)
chain: AQVGTNKELCCLVYTSWQIPQKFIVDYSETSPQCPKPGVILLTKRGRQICADPNKKWVQKYISDLKLNA
B5: CCL5/RANTES (ligand)
chain: SPYSSDTTPCCFAYIARPLPRAHIKEYFYTSGKCSNPAVVFVTRKNRQVCANPEKKWVREYINSLEMS
notes: also called 125I-CCL5/RANTES
B6: recombinant Evasin-3-6His purified from HEK293 cells (other)
chain: LVSTIESRTSGDGADNFDVVSCNKNCTSGQNECPEGCFCGLLGQNKKGHCYKIIGNLSGEPPVVRRHHHHHH
modifications: glycosylation on the S and T residues of the N-terminal sequence LVSTIESRTS (80% of the mature protein); heterogeneous post-translational modification, smear of 20-30 Kd
notes: also called Evasin-3-HIS; mature Evasin-3-HIS

Test [1] concerns the target B6. Kind of test: BS3 cross-linking of 125I-labelled protein to Evasin-3-6His, SDS-PAGE autoradiography (FIG. 7).
Test [2] has as its target B6. The experiment in a line: competition for BS3 cross-linking of 125I-CXCL8/IL-8 to recombinant Evasin-3 in HEK293 supernatant, SDS-PAGE autoradiography.
Test [3] has as its target B6. Kind of test: SPR (Biacore 3000), Evasin-3-6His immobilized on CM4 chip, chemokine injected. (In general: Surface plasmon resonance follows binding to a sensor surface in real time, without labels.)
Test [4] concerns the target T1, CXCL8/IL-8. Kind of test: cell-based or functional assay.
The target of test [5] is T2, CXCL1/Gro-alpha. The experiment in a line: cell-based or functional assay.
Test [6] deals with T1, CXCL8/IL-8. Kind of test: SPR (Biacore 3000), Evasin-3-6His immobilized on CM4 chip, Kd=kd/ka.
For test [7], the target named is T2, CXCL1/Gro-alpha. The test is described as above.
For test [8], the target named is T3, murine CXCL1/KC. The description is as above.
Test [9] addresses T4, murine CXCL2/MIP-2. The test is described as above.
Another test concerns the target T9, CCL11/eotaxin (UniProt P51671 24-97).
T9 construct: also called 125I-eotaxin
Kind of test: SPR (Biacore 3000), Evasin-3-6His immobilized on CM4 chip, chemokine injected.

For another test, the target named is T10, CXCL12/SDF-1-alpha (UniProt P48061 22-89).
T10 construct: also called SDF-1α
T10 sequence (P48061 22-89 limits assumed): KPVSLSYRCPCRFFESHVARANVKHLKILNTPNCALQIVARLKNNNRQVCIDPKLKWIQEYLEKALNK
The test is described as above.

Another test has as its target T5, CX3CL1/Fractalkine. The test is described as above.
The next test has as its target T11, CCL2/MCP-1 (UniProt P13500 24-99).
T11 construct: also called 125I-MCP-1
The experiment in a line: BS3 cross-linking of 125I-labelled protein to Evasin-3-6His, SDS-PAGE autoradiography (FIG. 7).

A further test deals with T6, CXCL10/IP-10. Described as above.
In another test the target is T7, CTACK/CCL27. The description is as above.
The next test addresses T12, IL-2 (UniProt P60568 21-153).
T12 construct: also called 125I-IL-2
The test is described as above.

The next test has as its target T8, IL-1α. The description is as above.
The target of test [10] is T1, CXCL8/IL-8. Kind of test: SPR (Biacore 3000), Evasin-3-6His immobilized on CM4 chip, chemokine injected, Langmuir global fit.
Test [11] has as its target T2, CXCL1/Gro-alpha. The description is as above.
Test [12] deals with T3, murine CXCL1/KC. Described as above.
Test [13] deals with T4, murine CXCL2/MIP-2. Described as above.
The target in test [14] is T1, CXCL8/IL-8. The experiment in a line: equilibrium competition receptor binding assay: inhibition of 0.1 nM 125I-IL-8 binding to CHO/CXCR1 cells.

T9 sequence (P51671 24-97 limits assumed): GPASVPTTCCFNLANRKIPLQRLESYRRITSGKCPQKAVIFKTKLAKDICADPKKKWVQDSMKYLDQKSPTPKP
T11 sequence (P13500 24-99 limits assumed): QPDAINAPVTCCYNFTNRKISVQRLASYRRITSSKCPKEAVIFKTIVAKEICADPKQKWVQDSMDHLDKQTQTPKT
T12 sequence (P60568 21-153 limits assumed): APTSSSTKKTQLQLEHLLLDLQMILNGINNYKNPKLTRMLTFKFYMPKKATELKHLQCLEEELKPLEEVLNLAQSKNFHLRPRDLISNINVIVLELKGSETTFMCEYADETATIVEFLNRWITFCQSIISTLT

In the case of B1, the binding result in test [1] is “no binding (tested: 0.23 nM 125I-labelled protein)”.
As to B2, the binding result in test [2] is listed as “no binding (tested: 1 µg unlabelled (500 fold excess))”.
Consider B3, for which, in test [3], the binding result was “no binding (tested: 0.5 µg/ml chemokine)”.
On the same count and under the same terms, with B4 the entry was “no binding (tested: 0.5 µg/ml chemokine)”.
With B5, the binding result in test [1] is recorded as “no binding (tested: 0.23 nM 125I-labelled protein)”.
Regarding B6, the “IC50 of inhibition of IL-8 induced chemotaxis of human neutrophils” value with CXCL8/IL-8 [4] was found to be 16 nM. The “IC50 of inhibition of Gro-alpha induced chemotaxis of human neutrophils” value in the test with CXCL1/Gro-alpha [5] stood at 20 nM. Besides, the Kd in the test with CXCL8/IL-8 [6] came to 0.22 nM; in the test with CXCL1/Gro-alpha [7], 0.45 nM; in the test with murine CXCL1/KC [8], 5.34 nM; with murine CXCL2/MIP-2 [9] it was 0.18 nM. Also, the binding result with CCL11/eotaxin was “no binding (tested: 0.5 µg/ml chemokine)”; with CXCL12/SDF-1-alpha, “no binding (tested: 0.5 µg/ml chemokine)”; in the test with CX3CL1/Fractalkine, “no binding (tested: 0.5 µg/ml chemokine)”; with CCL2/MCP-1, “no binding (tested: 0.23 nM 125I-labelled protein)”; in the test with CXCL10/IP-10, “no binding (tested: 0.23 nM 125I-labelled protein)”; with CTACK/CCL27, “no binding (tested: 0.23 nM 125I-labelled protein)”. In addition, the binding result with IL-2 and in the test with IL-1α was “no binding (tested: 0.23 nM 125I-labelled protein)” each time. Also, the koff in the test with CXCL8/IL-8 [10] was determined as 0.000178 s⁻¹; with CXCL1/Gro-alpha [11], 0.00117 s⁻¹; with murine CXCL1/KC [12], 0.0012 s⁻¹; with murine CXCL2/MIP-2 [13], 0.000255 s⁻¹. In addition, the kon with CXCL8/IL-8 [10] came to 826000 M⁻¹ s⁻¹; with CXCL1/Gro-alpha [11], 2.6e+06 M⁻¹ s⁻¹; with murine CXCL1/KC [12], 225000 M⁻¹ s⁻¹; with murine CXCL2/MIP-2 [13], 1.43e+06 M⁻¹ s⁻¹. Also, the concentration for half-maximal inhibition (IC50) with CXCL8/IL-8 [14] is 1 nM.

As a reminder, the Kd is the equilibrium constant for the complex coming apart. High values mean lower affinity, low ones higher affinity. Usually koff stands for the rate constant with which the complex falls apart. Read a low koff as slow dissociation. A word on the kon: it is the second-order rate constant of association. Higher therefore signals faster complex formation. By IC50 is commonly meant the concentration at which inhibition is half-maximal.
